Assay [1] has as its system CHO cells not expressing Frizzled CRD. The assay is described as follows: Flow cytometry of anti-FZD5 Fab binding to CHO cells not expressing Frizzled CRD (background). The source says: The binding of anti-FZD5 Fabs to cell surface-expressed Frizzled protein was further determined for each member of the Frizzled family via flow cytometry and immunofluorescence analysis of a panel of 10 CHO cell lines, each ectopically over-expressing the extracellular cysteine-rich domain (CRD) of a different Frizzled protein family member.

Another assay has as its target T1, FZD3 CRD (Homo sapiens, UniProt Q9NPG1).
T1 construct: CRD of FZD1, FZD2, FZD3, FZD4, FZD5, FZD6, FZD7, FZD8, FZD9 or FZD10; GPI anchor signal (C); expressed in transfected cells; host or cells: CHO cells, lentiviral pLenti-puro
T1 sequence (Q9NPG1 23-136 limits assumed): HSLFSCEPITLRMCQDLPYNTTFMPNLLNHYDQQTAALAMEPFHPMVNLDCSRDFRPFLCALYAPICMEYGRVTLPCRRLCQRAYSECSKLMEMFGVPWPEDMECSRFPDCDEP
Briefly: Immunofluorescence of anti-FZD5 Fab binding to CHO cells overexpressing Frizzled CRD. On the set-up: key: −: no binding; +: very weak binder; ++: weak binder; +++: good binder; ++++: very good binder. The method in brief: (§1)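 Using immunofluorescence plus flow cytometry, we examine Fab binding to surface CRDs of individual Frizzled receptors, each expressed on CHO cells as a myc-GPI fusion from a lentiviral vector.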

In the next assay the target is T2, FZD1 CRD (Homo sapiens, UniProt Q9UP38).
T2 construct: D112-P238; GPI anchor signal (C); expressed in transfected cells; host or cells: CHO cells, lentiviral pLenti-puro
Described as above. On the set-up: key: −: no binding; +: very weak binder; ++: weak binder; +++: good binder; ++++: very good binder. The method in brief:
as §1

Another assay deals with T3, FZD4 CRD (Homo sapiens, UniProt Q9ULV1).
T3 construct: E42-V167; GPI anchor signal (C); expressed in transfected cells; host or cells: CHO cells, lentiviral pLenti-puro
T3 sequence (Q9ULV1 42-167): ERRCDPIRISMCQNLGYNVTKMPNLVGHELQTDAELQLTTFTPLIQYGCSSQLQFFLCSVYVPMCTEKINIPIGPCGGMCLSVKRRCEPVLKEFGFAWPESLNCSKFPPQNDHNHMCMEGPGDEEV
The assay is described as above. Further details: key: −: no binding; +: very weak binder; ++: weak binder; +++: good binder; ++++: very good binder. The method in brief: as §1

A further assay deals with T4, FZD7 CRD (Homo sapiens, UniProt O75084).
T4 construct: D45-S169; GPI anchor signal (C); expressed in transfected cells; host or cells: CHO cells, lentiviral pLenti-puro
The description is as above. Further details: key: −: no binding; +: very weak binder; ++: weak binder; +++: good binder; ++++: very good binder. The method in brief: as §1

In a further assay the target is T5, FZD5 CRD (Homo sapiens, UniProt Q13467).
T5 construct: K29-T156; GPI anchor signal (C); expressed in transfected cells; host or cells: CHO cells, lentiviral pLenti-puro
T5 sequence (Q13467 29-156): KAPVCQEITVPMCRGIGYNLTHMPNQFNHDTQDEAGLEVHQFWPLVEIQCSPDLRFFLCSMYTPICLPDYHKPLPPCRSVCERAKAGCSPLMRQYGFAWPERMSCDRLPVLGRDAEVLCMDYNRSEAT
Described as above. On the set-up: key: −: no binding; +: very weak binder; ++: weak binder; +++: good binder; ++++: very good binder. The method in brief:
as §1

B1: Fab-2911: anti-FZD5 Fab with antibody variable region Fv-2911; CDR SEQ ID NOs: 35, 36, 50, 89, 126, 163 (antibody, V domains shown)
VH: EVQLVESGGGLVQPGGSLRLSCAASGFNIYYSSMHWVRQAPGKGLEWVAYIYPYSGYTSYADSVKGRFTISADTSKNTAYLQMNSLRAEDTAVYYCARYFWWYGFDYWGQGTLVTVSS
VL: DIQMTQSPSSLSASVGDRVTITCRASQSVSSAVAWYQQKPGKAPKLLIYSASSLYSGVPSRFSGSRSGTDFTLTISSLQPEDFATYYCQQGPWYPFTFGQGTKVEIK
Take B1: the “Median fluorescence, Frizzled CRD overexpressed on CHO cells: None” value (shortened to “Median fluorescence”) in assay [1] amounted to 4.53. In addition, the “Immunofluorescence binding, Frizzled CRD overexpressed on CHO cells: FZD3” value (shortened to “Immunofluorescence binding … FZD3”) with FZD3 CRD was “−”. For the same molecule, the “Immunofluorescence binding, Frizzled CRD overexpressed on CHO cells: FZD1” value (from here on “Immunofluorescence binding … FZD1”) in the assay with FZD1 CRD is recorded as “++”. Besides, in the assay with FZD4 CRD, the “Immunofluorescence binding, Frizzled CRD overexpressed on CHO cells: FZD4” value (“Immunofluorescence binding … FZD4” for short) is “−”. Also, the “Immunofluorescence binding, Frizzled CRD overexpressed on CHO cells: FZD7” value (“Immunofluorescence binding … FZD7” for short) with FZD7 CRD was “+++”. In addition, the “Immunofluorescence binding, Frizzled CRD overexpressed on CHO cells: FZD5” value (“Immunofluorescence binding … FZD5” for short) with FZD5 CRD is “++”.

B2: Fab-2906: anti-FZD5 Fab with antibody variable region Fv-2906; CDR SEQ ID NOs: 35, 36, 45, 84, 121, 158 (antibody, V domains shown)
VH: EVQLVESGGGLVQPGGSLRLSCAASGFNFSSSSIHWVRQAPGKGLEWVAYISSSYGYTYYADSVKGRFTISADTSKNTAYLQMNSLRAEDTAVYYCARTVRGSKKPYFSGWAMDYWGQGTLVTVSS
VL: DIQMTQSPSSLSASVGDRVTITCRASQSVSSAVAWYQQKPGKAPKLLIYSASSLYSGVPSRFSGSRSGTDFTLTISSLQPEDFATYYCQQWSWGFLITFGQGTKVEIK
For B2, the “Median fluorescence” value in assay [1] was 3.89. Besides, the “Immunofluorescence binding … FZD3” value in the assay with FZD3 CRD was “−”. Further, in the assay with FZD1 CRD, the “Immunofluorescence binding … FZD1” value is reported as “−”. In the assay with FZD4 CRD, the “Immunofluorescence binding … FZD4” value is “−”. Moreover, the “Immunofluorescence binding … FZD7” value in the assay with FZD7 CRD is on record as “+”. In the assay with FZD5 CRD, the “Immunofluorescence binding … FZD5” value was “++++”.

B3: Fab-2898: anti-FZD5 Fab with antibody variable region Fv-2898; CDR SEQ ID NOs: 35, 36, 37, 76, 113, 152 (antibody, V domains shown)
VH: EVQLVESGGGLVQPGGSLRLSCAASGFNIYSYSMHWVRQAPGKGLEWVASIYSSSGSTSYADSVKGRFTISADTSKNTAYLQMNSLRAEDTAVYYCARAVWGLDYWGQGTLVTVSS
VL: DIQMTQSPSSLSASVGDRVTITCRASQSVSSAVAWYQQKPGKAPKLLIYSASSLYSGVPSRFSGSRSGTDFTLTISSLQPEDFATYYCQQWWGYYSLITFGQGTKVEIK
For the molecule B3, the “Median fluorescence” value in assay [1] is reported as 5.38. Also, in the assay with FZD3 CRD, the “Immunofluorescence binding … FZD3” value is “−”. Besides, the “Immunofluorescence binding … FZD1” value with FZD1 CRD was “++++”. Moreover, the “Immunofluorescence binding … FZD4” value with FZD4 CRD is given as “−”. Besides, in the assay with FZD7 CRD, the “Immunofluorescence binding … FZD7” value is “+++”. Also, the “Immunofluorescence binding … FZD5” value with FZD5 CRD is recorded as “+++”.

B4: Fab-2923: anti-FZD5 Fab with antibody variable region Fv-2923; CDR SEQ ID NOs: 35, 36, 62, 100, 138, 162 (antibody, V domains shown)
VH: EVQLVESGGGLVQPGGSLRLSCAASGFNLYYYYMHWVRQAPGKGLEWVASIYSSSGSTSYADSVKGRFTISADTSKNTAYLQMNSLRAEDTAVYYCARGAMDYWGQGTLVTVSS
VL: DIQMTQSPSSLSASVGDRVTITCRASQSVSSAVAWYQQKPGKAPKLLIYSASSLYSGVPSRFSGSRSGTDFTLTISSLQPEDFATYYCQQWYGYSALITFGQGTKVEIK
In the case of B4, the “Immunofluorescence binding … FZD3” value with FZD3 CRD is “−”. The “Immunofluorescence binding … FZD1” value in the assay with FZD1 CRD is recorded as “−”. In addition, the “Immunofluorescence binding … FZD4” value with FZD4 CRD is “−”. The “Immunofluorescence binding … FZD7” value with FZD7 CRD is on record as “−”. The “Immunofluorescence binding … FZD5” value in the assay with FZD5 CRD was “++++”.

B5: Fab-2899: anti-FZD5 Fab with antibody variable region Fv-2899; CDR SEQ ID NOs: 35, 36, 38, 77, 114, 153 (antibody, V domains shown)
VH: EVQLVESGGGLVQPGGSLRLSCAASGFNLYYYYMHWVRQAPGKGLEWVASIYPSSGSTSYADSVKGRFTISADTSKNTAYLQMNSLRAEDTAVYYCARGALDYWGQGTLVTVSS
VL: DIQMTQSPSSLSASVGDRVTITCRASQSVSSAVAWYQQKPGKAPKLLIYSASSLYSGVPSRFSGSRSGTDFTLTISSLQPEDFATYYCQQWYSSYGLITFGQGTKVEIK
For the molecule B5, the “Median fluorescence” value in assay [1] stood at 4.91. The “Immunofluorescence binding … FZD3” value in the assay with FZD3 CRD is “−”. Besides, the “Immunofluorescence binding … FZD1” value with FZD1 CRD is given as “+++”. Also, in the assay with FZD4 CRD, the “Immunofluorescence binding … FZD4” value is reported as “−”. The “Immunofluorescence binding … FZD7” value in the assay with FZD7 CRD is on record as “+++”. Further, the “Immunofluorescence binding … FZD5” value with FZD5 CRD was “+++”.

B6: Fab-2902: anti-FZD5 Fab with antibody variable region Fv-2902; CDR SEQ ID NOs: 35, 36, 41, 80, 117, 153 (antibody, V domains shown)
VH: EVQLVESGGGLVQPGGSLRLSCAASGFNISYYYIHWVRQAPGKGLEWVASISSSSSSTSYADSVKGRFTISADTSKNTAYLQMNSLRAEDTAVYYCARGALDYWGQGTLVTVSS
VL: DIQMTQSPSSLSASVGDRVTITCRASQSVSSAVAWYQQKPGKAPKLLIYSASSLYSGVPSRFSGSRSGTDFTLTISSLQPEDFATYYCQQWYAFGALITFGQGTKVEIK
For B6, the “Median fluorescence” value in assay [1] came out at 4.66. Also, the “Immunofluorescence binding … FZD3” value with FZD3 CRD is on record as “−”. In addition, in the assay with FZD1 CRD, the “Immunofluorescence binding … FZD1” value is “−”. Moreover, the “Immunofluorescence binding … FZD4” value in the assay with FZD4 CRD was “−”. Moreover, the “Immunofluorescence binding … FZD7” value in the assay with FZD7 CRD is “+”. In addition, in the assay with FZD5 CRD, the “Immunofluorescence binding … FZD5” value is “++++”.

B7: Fab-2926: anti-FZD5 Fab with antibody variable region Fv-2926; CDR SEQ ID NOs: 35, 36, 65, 103, 141, 173 (antibody, V domains shown)
VH: EVQLVESGGGLVQPGGSLRLSCAASGFNIYSSYMHWVRQAPGKGLEWVASIYPSSSSTSYADSVKGRFTISADTSKNTAYLQMNSLRAEDTAVYYCARGGLDYWGQGTLVTVSS
VL: DIQMTQSPSSLSASVGDRVTITCRASQSVSSAVAWYQQKPGKAPKLLIYSASSLYSGVPSRFSGSRSGTDFTLTISSLQPEDFATYYCQQWYHGGSLFTFGQGTKVEIK
For the molecule B7, the “Immunofluorescence binding … FZD3” value in the assay with FZD3 CRD is given as “−”. For the same molecule, the “Immunofluorescence binding … FZD1” value in the assay with FZD1 CRD is recorded as “−”. Further, the “Immunofluorescence binding … FZD4” value in the assay with FZD4 CRD is reported as “−”. The “Immunofluorescence binding … FZD7” value with FZD7 CRD is listed as “−”. Further, the “Immunofluorescence binding … FZD5” value with FZD5 CRD is listed as “++++”.

B8: Fab-2909: anti-FZD5 Fab with antibody variable region Fv-2909; CDR SEQ ID NOs: 35, 36, 48, 87, 124, 161 (antibody, V domains shown)
VH: EVQLVESGGGLVQPGGSLRLSCAASGFNISSSYMHWVRQAPGKGLEWVASISSSSGYTSYADSVKGRFTISADTSKNTAYLQMNSLRAEDTAVYYCARTVRGSKKPYFSGWAMDYWGQGTLVTVSS
VL: DIQMTQSPSSLSASVGDRVTITCRASQSVSSAVAWYQQKPGKAPKLLIYSASSLYSGVPSRFSGSRSGTDFTLTISSLQPEDFATYYCQQSWSYHYLITFGQGTKVEIK
For the molecule B8, the “Median fluorescence” value in assay [1] was 3.4. The “Immunofluorescence binding … FZD3” value with FZD3 CRD is recorded as “−”. Also, in the assay with FZD1 CRD, the “Immunofluorescence binding … FZD1” value was “−”. Moreover, the “Immunofluorescence binding … FZD4” value with FZD4 CRD is on record as “−”. Further, the “Immunofluorescence binding … FZD7” value with FZD7 CRD is recorded as “+”. Moreover, the “Immunofluorescence binding … FZD5” value in the assay with FZD5 CRD was “+++”.

For the origin of these results see US20210253718A1, “FRIZZLED5 PROTEIN-BINDING AGENTS” (Modmab Therapeutics Corporation, priority 2016, published 2021).
